Laboratory results reported in US20230295297A1 (Alector, published 2023).

T1: human TREM2 on primary cells (human, UniProt Q9NZC2 19-230)
T1 construct: also called TREM2 on hDC; hMAC
T1 sequence: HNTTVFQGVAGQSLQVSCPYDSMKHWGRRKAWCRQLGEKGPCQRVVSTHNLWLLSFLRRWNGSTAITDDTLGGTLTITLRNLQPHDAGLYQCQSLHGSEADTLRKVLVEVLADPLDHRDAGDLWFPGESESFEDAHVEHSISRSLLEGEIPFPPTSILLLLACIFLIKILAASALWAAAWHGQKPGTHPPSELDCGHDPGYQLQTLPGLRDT

T2: recombinant human TREM2-DAP12 fusion protein expressed on cells (human)
T2 construct: also called HEKhT2; 293 cells expressing human TREM2; not shown: None of these limits is stated
T2 chain: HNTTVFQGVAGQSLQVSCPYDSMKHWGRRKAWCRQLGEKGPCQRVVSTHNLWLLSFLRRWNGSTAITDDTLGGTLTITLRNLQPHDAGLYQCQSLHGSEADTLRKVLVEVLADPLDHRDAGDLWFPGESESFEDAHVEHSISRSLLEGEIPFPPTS

T3: mouse TREM2 on cells (mouse, UniProt Q99NH8 19-227)
T3 construct: recombinant on BWZ cells (with DAP12) and native on mouse macrophages; also called BWZmT2; BWZ T2
T3 sequence: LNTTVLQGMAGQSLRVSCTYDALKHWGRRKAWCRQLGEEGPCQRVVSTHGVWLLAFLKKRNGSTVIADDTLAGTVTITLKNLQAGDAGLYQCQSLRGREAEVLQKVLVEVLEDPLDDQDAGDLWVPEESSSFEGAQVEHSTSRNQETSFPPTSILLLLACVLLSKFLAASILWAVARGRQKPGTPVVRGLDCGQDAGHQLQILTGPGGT

T4: E156A
T4 construct: also called hTREM2-Dap12 chimera with E156A; not shown: Transmembrane/cytoplasmic stretch and the Dap12 portion of the chimera
T4 chain: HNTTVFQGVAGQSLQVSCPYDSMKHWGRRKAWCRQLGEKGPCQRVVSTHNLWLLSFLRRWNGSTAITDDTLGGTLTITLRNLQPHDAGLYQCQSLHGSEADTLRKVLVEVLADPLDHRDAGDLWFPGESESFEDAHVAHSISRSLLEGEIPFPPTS

T5: D152A
T5 construct: also called hTREM2-Dap12 chimera with D152A; not shown: Transmembrane/cytoplasmic stretch and the Dap12 portion of the chimera
T5 chain: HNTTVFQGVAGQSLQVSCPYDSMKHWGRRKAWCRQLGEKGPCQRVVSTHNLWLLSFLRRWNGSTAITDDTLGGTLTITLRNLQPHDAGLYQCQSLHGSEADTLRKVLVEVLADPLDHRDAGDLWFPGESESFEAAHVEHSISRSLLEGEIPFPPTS

T6: G45A
T6 construct: also called hTREM2-Dap12 chimera with G45A; not shown: Transmembrane/cytoplasmic stretch and the Dap12 portion of the chimera
T6 chain: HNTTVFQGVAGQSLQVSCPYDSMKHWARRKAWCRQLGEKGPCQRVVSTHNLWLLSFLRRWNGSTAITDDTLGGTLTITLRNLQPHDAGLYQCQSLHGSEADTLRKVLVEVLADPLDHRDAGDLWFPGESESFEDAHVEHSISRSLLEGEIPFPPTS

T7: H114A
T7 construct: also called hTREM2-Dap12 chimera with H114A; not shown: Transmembrane/cytoplasmic stretch and the Dap12 portion of the chimera
T7 chain: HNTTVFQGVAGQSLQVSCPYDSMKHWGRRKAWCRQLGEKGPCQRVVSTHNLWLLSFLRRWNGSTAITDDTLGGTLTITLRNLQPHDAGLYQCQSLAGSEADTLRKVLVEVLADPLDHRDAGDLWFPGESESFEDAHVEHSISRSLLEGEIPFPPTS

T8: H154A
T8 construct: also called hTREM2-Dap12 chimera with H154A; not shown: Transmembrane/cytoplasmic stretch and the Dap12 portion of the chimera
T8 chain: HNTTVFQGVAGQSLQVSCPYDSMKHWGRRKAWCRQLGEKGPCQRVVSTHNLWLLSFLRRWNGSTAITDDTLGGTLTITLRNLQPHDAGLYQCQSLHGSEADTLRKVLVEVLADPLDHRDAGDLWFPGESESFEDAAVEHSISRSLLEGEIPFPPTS

T9: E151A
T9 construct: also called hTREM2-Dap12 chimera with E151A; not shown: Transmembrane/cytoplasmic stretch and the Dap12 portion of the chimera
T9 chain: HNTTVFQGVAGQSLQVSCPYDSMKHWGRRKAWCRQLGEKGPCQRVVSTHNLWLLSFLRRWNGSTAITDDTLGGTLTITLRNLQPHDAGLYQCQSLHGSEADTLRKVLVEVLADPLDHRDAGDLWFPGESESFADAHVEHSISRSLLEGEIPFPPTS

T10: R77A
T10 construct: also called hTREM2-Dap12 chimera with R77A; not shown: Transmembrane/cytoplasmic stretch and the Dap12 portion of the chimera
T10 chain: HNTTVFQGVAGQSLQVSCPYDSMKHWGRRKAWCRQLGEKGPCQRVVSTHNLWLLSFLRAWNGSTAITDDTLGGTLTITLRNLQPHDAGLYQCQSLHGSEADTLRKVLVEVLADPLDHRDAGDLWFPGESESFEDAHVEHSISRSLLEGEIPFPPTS

T11: K42A
T11 construct: also called hTREM2-Dap12 chimera with K42A; not shown: Transmembrane/cytoplasmic stretch and the Dap12 portion of the chimera
T11 chain: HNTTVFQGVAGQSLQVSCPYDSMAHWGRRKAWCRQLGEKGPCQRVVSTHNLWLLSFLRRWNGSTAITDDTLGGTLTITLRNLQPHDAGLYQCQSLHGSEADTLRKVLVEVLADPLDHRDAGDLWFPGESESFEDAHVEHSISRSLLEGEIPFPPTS


Tests used:
[1] = target: T1, human TREM2 on primary cells; assay: FACS, primary hMAC
[2] = target: T2, recombinant human TREM2-DAP12 fusion …; assay: KD cell binding
[3] = target: T1, human TREM2 on primary cells; assay: FACS, primary hDC
[4] = target: T2, recombinant human TREM2-DAP12 fusion …; assay: FACS, HEKhT2 cells
mouse TREM2 on cells [5] = target: T3, mouse TREM2 on cells; assay: FACS on thioglycollate-induced macrophages of wild-type mice (mouse TREM2 only), gated CD11b+ F4/80+
mouse TREM2 on cells [6] = target: T3, mouse TREM2 on cells; assay: KD cell binding
E156A = target: T4, E156A; assay: shotgun alanine scanning: immunofluorescence flow cytometry on HEK-293T cells expressing the mutant chimera; mean of duplicates, range in brackets
D152A [7] = target: T5, D152A; assay: as above
G45A = target: T6, G45A; assay: as above
H114A = target: T7, H114A; assay: as above
H154A [8] = target: T8, H154A; assay: as above
E151A [9] = target: T9, E151A; assay: as above
R77A = target: T10, R77A; assay: as above
K42A = target: T11, K42A; assay: as above
D152A [10] = target: T5, D152A; assay: shotgun alanine scanning: immunofluorescence flow cytometry on HEK-293T cells expressing the mutant chimera
H154A [11] = target: T8, H154A; assay: as above
E151A [12] = target: T9, E151A; assay: as above

Row | % Positive hMAC [1] [%] | Kd [2] [nM] | % Positive hDC [3] [%] | MFI HEKhT2 [4] [MFI] | Binder | also measured
1 | 34 | 4.64 | 94 | 11000 | 8A1 (antibody, IgG2a, V domains shown, mIgG2a) VH: EVQLQQSGAELVKPGASVKISCKASGYAFSNYWMSWVKQRPGKGLEWIGQIYPGDGDTKYNGKFEGKATLTADKSSSTAYMQLSSLTSEDSAVYFCSREKGADYYGSTYSAWFSYWGQGTLVTVSA VL: DIQMTQSPASLSVSVGETVTITCRTSENVYSNLAWYQQKQGKSPQLLVYAATNLADGVPSRFSASGSATQFSLKINSLQSADFGSYYCHHFWGTPYTFGGGTKLEMN | –
2 | 18 | 4.98 | 77 | 7300 | 3A2 (antibody, IgG1, V domains shown, mIgG1; variable domains built FR1-HVR1-FR2-HVR2-FR3-HVR3-FR4) VH: QVQLQQSGAELVKPGASVKMSCKTSGYPFSNFWITWVKQRPGQGLVWIGDIYPGSDNSNYNEKFKTKATLTVDTSSSTAYMHLSSLTSEDSAVYFCAREAYYTNPGFAYWGQGTLVTVST VL: DVVMTQTPLSLPVSLGDQASISCRSSQTIIHSNGNTYLEWYLRKPGQSPKLLIYKVSNRFSGVPDRFSGSGSGTDFTLKISRVEAEDLGVYYCFQGSHVPYTFGGGTELEIK | –
3 | – | 5.4 | 83.9 | 13500 | 6H2 (antibody, IgG2a, V domains shown, mIgG2a) VH: QVQLQESGPGLVQPSQSLSIICTVSAFSLTNYAVHWIRQSPGKGLEWLGVIWSGGSTAFNAAFISRLNISKDNSKSQVFFKMNSLQSDDTAIYYCATHYYRSTYAFSYWGQGTLVTVSA VL: DVLMTQTPLSLPVSLGDQASISCRSSQSIVHSNGNTYLEWYLQKPGQSPKLLIYKVSNRFSGVPDRFSGSGSGTDFTLKISRVEAEDLGVYYCFQGSHVPFTFGSGTKLEIK | –
4 | 64 | 4.24 | 96 | 11900 | 10A9 (antibody, IgG1, V domains shown, mIgG1) VH: QVQLQQSGAEVVKPGASVKMSCKTSGYPFSNFWITWVKQRPGQGLVWIGDIYPGSDNRNFNERFKTKATLTVDTSSSTAYMHLSSLTSEDSAVYFCAREAYYTNPGFAYWGQGTLVTVSA VL: DVVMTQTPLSLPVSLGDQASISCRSSQTIIHSNGNTYLEWYLRKPGQSPKLLIYKVSNRFCGVPDRFSGSGSGTDFTLKISRVEAEDLGVYYCFQGSHVPYTFGGGTELEIK | binding result (mouse TREM2 on cells [5]): no binding
5 | – | – | – | – | 2H8 (antibody, IgG1, V domains shown, mIgG1) VH: EVQLVESGGGLVQPKGSLKLSCAASGFSFNTYAMNWVRQAPGKGLEWIARIRSKSNNYATYYADSVKDRFTCSRDDSENMFYLQLSSLKTEDTAMYYCVRHGDGNLWYIDVWGTGTTVTVSS VL: NVLTQSPALMSASPGEKVTMTCSASSSVSYMYWYQQKPRSSPKPWIYLTSILASGVPARFSGSGSGTSYSLTISSMEAEDAATYYCQQWSFNPYTFGGGTKLVIK | Kd (mouse TREM2 on cells [6]): 6.86 nM
6 | – | – | – | – | 7F8 (antibody, IgG1, V domains shown, mIgG1) VH: EVQLVESGGGLVQPKGSLKLSCAASGFSFNTYAMNWVRQAPGKGLEWIARIRSKSNNYATYYADSVKDRITCSRDDSENMFYLQLSSLKTEDTAMYYCVRHGDGNLWYIDVWGTGTTVTVST VL: VLTQSPALMSASPGEKVTMTCSASSSVSYMYWYQQKPRSSPKPWIYLTSILASGVPARFSGSGSGTSYSLTINNMEAEDAATYYCQQWSFNPYTFGGGTKLVIK | Kd (mouse TREM2 on cells [6]): 1.78 nM
7 | 26 | 0.96 | 73 | 2910 | 9F5 (antibody, IgG1, V domains shown, mIgG1; VH FR 169/184/202/216, HVR 60/78/97; also called mAb T2-9F5.1; 9F5 MAb) VH: QVQLQQSGPELVKPGASLKISCKASGYAFSSSWMNWVKQRPGKGLEWIGRIYPGDGDTNYNGEFRVRATLTADTSSTTAYMQLSSLTSEDSAVYFCARLLRNQPGESYAMDYWGQGASVTVSS VL: DVVMTQTPLSLPVSLGDQASISCRSSQSLVHSNGYTYLHWYLQKPGQSPKLLIYKVSNRFSGVPDRFSGSGSGTDFTLKISRVEADDLGVYFCSQSTRVPYTFGGGTKLEIK | binding result (mouse TREM2 on cells [5]): no binding; Binding Reactivity (% WT) (E156A): 17.7 % WT; Binding Reactivity (% WT) (D152A [7]): 2.7 % WT; Binding Reactivity (% WT) (G45A): 145 % WT; Binding Reactivity (% WT) (H114A): 114 % WT; Binding Reactivity (% WT) (H154A [8]): 3 % WT; Binding Reactivity (% WT) (E151A [9]): 4.8 % WT; Binding Reactivity (% WT) (R77A): 124 % WT; Binding Reactivity (% WT) (K42A): 131 % WT; binding result (D152A [10]): no binding; binding result (H154A [11]): no binding; binding result (E151A [12]): no binding
8 | 20 | 9.06 | 60 | 3080 | 9G1 (antibody, IgG1, V domains shown, mIgG1) VH: QVQLQQSGAELVKPGASVKLSCKASGYIFTTYWIHWVKQRPGRGPEWIGRIDPNNGDTNYNEKFKTKATLTVDKPSSTADMQLSSLTSEDSAVYYCVMTGTDFDYWGQGTTLTVSS VL: DVLMTQTPLSLPVSLGDQASISCRFSQSLVHSNGNTYLHWYLQKPGQSPKLLIYKVSNRFSGVPDRFSGSGSGTDFTLRISGVEAEDLGVYFCSQSTRVPPTFGGGTKLEIK | –
